Laboratory results: patent US20210317213A1 (AMBRX, published 2021)

Legend:
[1] = target: Folate receptor-alpha (FOLR1) (human) (UniProt P15328); test: summary table; FRα affinity over CD3 affinity
[2] = target: T1, human CD3 (human, UniProt P07766 23-207); test: cell binding, human PBMC
T1 construct: whole, on cells; also called CD3 on human T-cells

[3] = target: Folate receptor-alpha (FOLR1) (human) (UniProt P15328); test: summary table; cell binding through the folate moiety
[4] = target: Folate receptor-alpha (FOLR1) (human) (UniProt P15328); test: cell binding, SKOV-3 cells with 50 nM SFA; through the folate moiety
[5] = target: T1, human CD3; test: summary table; cell binding EC50, human PBMC
[6] = target: T2, cyno CD3 (cyno (cynomolgus monkey), UniProt Q95LI5 22-198); test: cell binding, cyno CD3 (activated cyno PBMC); cyno CD3 (second number of the cell)
T2 construct: whole, on cells; also called CD3 on Cynomolgus T-cells
Description: (§1) Testing for CD3 binding with activated human and cyno PBMC: To distinguish between the humanized anti-CD3 antibodies generated, binding to human CD3 was tested using activated human PBMCs (n=2). The activation of PBMCs and subsequent fluorescence-based CD3 binding assays were followed as described previously (see for example, Angew Chem Int Ed Engl, 52(46):12101-12104, 2013). […] The binding of the remaining 6 humanized antibodies to both human and cyno CD3 using activated human and cyno PBMCs, respectively, was titrated. […] The six (6) humanized anti-CD3 antibodies were obtained as follows: Fab1, Fab2 and Fab3 wildtype were generated by combination of LC ((vL1.2+CL); (SEQ.ID. NO:7)) and HC ((vH1.2+CH1); (SEQ.ID. NO:1)), ((vH1.1+CH1); (SEQ.ID. NO:2)) and ((vH1.0+CH1); (SEQ.ID. NO:3)) respectively. Fab4, Fab 5 and Fab6 wildtype were generated by combination of LC ((vL1.1+CL); (SEQ.ID. NO:8)) and HC ((vH1.2+CH1); (SEQ.ID. NO:1)), ((vH1.1+CH1); (SEQ.ID. NO:2)) and ((vH1.0+CH1); (SEQ.ID. NO:3)) respectively.
(§2) Binding of Folate-conjugated Fabs to human and cyno CD3: Binding of E. coli produced and Folate-conjugated low-affinity variants of humanized anti-CD3 Fabs was performed as described in the above Examples.

[7] = target: T1, human CD3; test: cell binding, human CD3 (activated human PBMC); human CD3 (first number of the cell)
Description: as §1, §2

[8] = target: T2, cyno CD3; test: cell binding, activated cyno PBMC
[9] = target: T1, human CD3; test: cell binding, activated human PBMC
[10] = target: Folate receptor-alpha (FOLR1) (human) (UniProt P15328); test: cell binding, FOLRα-expressing KB cells; through the folate moiety
[11] = target: T1, human CD3; test: cell binding, human T-cells; parameters: Bmax: unit not given here
[12] = target: T1, human CD3; test: cell binding, human CD3, 50 nM SFA present
[13] = target: T2, cyno CD3; test: cell binding, cynomolgus T-cells
[14] = target: T1, human CD3; test: cell binding, activated human PBMC; E. coli protein
[15] = target: T2, cyno CD3; test: cell binding, activated cyno PBMC; E. coli protein

Folate receptor-alpha (FOLR1) (human), sequence (P15328 25-234): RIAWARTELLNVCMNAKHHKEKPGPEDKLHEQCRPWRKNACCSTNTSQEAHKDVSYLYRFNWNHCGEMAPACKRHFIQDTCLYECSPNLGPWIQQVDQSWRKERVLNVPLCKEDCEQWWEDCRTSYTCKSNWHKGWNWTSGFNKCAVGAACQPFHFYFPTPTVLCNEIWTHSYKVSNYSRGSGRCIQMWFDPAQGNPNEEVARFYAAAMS
T1 sequence (P07766 23-207): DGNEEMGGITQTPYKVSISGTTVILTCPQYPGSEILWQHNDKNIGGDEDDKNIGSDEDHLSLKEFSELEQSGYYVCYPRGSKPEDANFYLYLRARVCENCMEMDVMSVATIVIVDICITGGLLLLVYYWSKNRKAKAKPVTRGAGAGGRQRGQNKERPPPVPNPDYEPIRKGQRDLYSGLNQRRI
T2 sequence (Q95LI5 22-198): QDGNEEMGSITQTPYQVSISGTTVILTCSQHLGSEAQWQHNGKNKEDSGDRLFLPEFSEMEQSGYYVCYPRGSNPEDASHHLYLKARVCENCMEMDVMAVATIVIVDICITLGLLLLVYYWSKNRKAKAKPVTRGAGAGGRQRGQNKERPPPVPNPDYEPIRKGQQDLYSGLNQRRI

B1: Fab1-HK129-LK172-BiFolate (Fab, V domains shown)
VH: EVQLVESGGGLVQPGGSLRLSCAASGFTFNTYAMNWVRQAPGKGLEWVARIRSKYNNYATYYADSVKDRFTISRDDSKNILYLQMNSLKTEDTAVYYCVRHGNFGNSYVSWFAYWGQGTLVTVSS
VL: QAVVTQEPSLTVSPGGTVTLTCRSSTGAVTTSNYANWVQQKPGQAPRGLIGGTNKRAPGTPARFSGSLLGGKAALTLSGAQPEDEAEYYCALWYSNLWVFGGGTKLTVLG
modifications: pAF at LK172 (Kabat) conjugated to folate (oxime); pAF at HK129 (Kabat) conjugated to folate (oxime)
notes: From E. coli; carries two folates
Affinity ratio (FRα:CD3) [1]: 3.5
EC50 [2]: 2.85 nM
Fold increase binding (vs Fab1-HK129-Folate) [2]: 0.86 fold
FRα binding affinity [3]: 10 nM
EC50 [4]: 10 nM
Fold increase binding (vs Fab1-HK129-Folate) [4]: 4.4 fold
CD3 binding affinity [5]: 2.85 nM

B2: Fab8-HK129-Folate (Fab, V domains shown)
VH: EVQLVESGGGLVQPGGSLRLSCAASGFTFNTYAMNWVRQAPGKGLEWVGRIRSKYNNYATYYADSVKDRFTISRDDSKNILYLQMNSLKTEDTAVYYCVRHGNFGNSYVSWFAYWGQGTLVTVSS
VL: QAVVTQEPSLTVSPGGTVTLTCRSSTGAVTTSNYANWFQQKPGQAPRGLIGGTNKRAPGVPARFSGSLLGGKAALTLSGAQPEDEAEYYCALWYSNLWVFGGGTKLTVLG
modifications: pAF at HK129 (Kabat) conjugated to folate (oxime)
notes: also called Fab8 (E. coli, folate-conjugated)
EC50 [6]: 130 nM
EC50 [7]: 78.3 nM

B3: Fab1-HK129-20KPEG-Folate (Fab, V domains shown)
VH: EVQLVESGGGLVQPGGSLRLSCAASGFTFNTYAMNWVRQAPGKGLEWVARIRSKYNNYATYYADSVKDRFTISRDDSKNILYLQMNSLKTEDTAVYYCVRHGNFGNSYVSWFAYWGQGTLVTVSS
VL: QAVVTQEPSLTVSPGGTVTLTCRSSTGAVTTSNYANWVQQKPGQAPRGLIGGTNKRAPGTPARFSGSLLGGKAALTLSGAQPEDEAEYYCALWYSNLWVFGGGTKLTVLG
modifications: pAF at HK129 (Kabat) conjugated to a bifunctional linker carrying folate and a linear 20K PEG (oxime)
notes: From E. coli
Affinity ratio (FRα:CD3) [1]: 26
EC50 [8]: 11.8 nM
Fold reduction in binding (vs Fab1-HK129-Folate) [8]: 8.4 fold
FRα binding affinity [3]: 310 nM
EC50 [9]: 12 nM
Fold reduction in binding (vs Fab1-HK129-Folate) [9]: 4.3 fold
CD3 binding affinity [5]: 12 nM

B4: Fab1-HK129-5KPEG-Folate (Fab, V domains shown)
VH: EVQLVESGGGLVQPGGSLRLSCAASGFTFNTYAMNWVRQAPGKGLEWVARIRSKYNNYATYYADSVKDRFTISRDDSKNILYLQMNSLKTEDTAVYYCVRHGNFGNSYVSWFAYWGQGTLVTVSS
VL: QAVVTQEPSLTVSPGGTVTLTCRSSTGAVTTSNYANWVQQKPGQAPRGLIGGTNKRAPGTPARFSGSLLGGKAALTLSGAQPEDEAEYYCALWYSNLWVFGGGTKLTVLG
modifications: pAF at HK129 (Kabat) conjugated to a bifunctional linker carrying folate and a linear 5K PEG (oxime)
notes: From E. coli; also called Fab1-5KPEG-Folate
Affinity ratio (FRα:CD3) [1]: 26
Bmax [10]: 134000
Kd [10]: 3.69 nM
EC50 [8]: 2.46 nM
Fold reduction in binding (vs Fab1-HK129-Folate) [8]: 1.7 fold
Bmax [11]: 23400
Kd [11]: 2.34 nM
EC50 [12]: 5.27 nM
FRα binding affinity [3]: 129 nM
EC50 [9]: 5 nM
Fold reduction in binding (vs Fab1-HK129-Folate) [9]: 1.9 fold
CD3 binding affinity [5]: 5 nM
Bmax [13]: 19900
Kd [13]: 3.31 nM

B5: Fab1-HA114-pAF1 (Fab, V domains shown)
VH: EVQLVESGGGLVQPGGSLRLSCAASGFTFNTYAMNWVRQAPGKGLEWVARIRSKYNNYATYYADSVKDRFTISRDDSKNILYLQMNSLKTEDTAVYYCVRHGNFGNSYVSWFAYWGQGTLVTVSS
VL: QAVVTQEPSLTVSPGGTVTLTCRSSTGAVTTSNYANWVQQKPGQAPRGLIGGTNKRAPGTPARFSGSLLGGKAALTLSGAQPEDEAEYYCALWYSNLWVFGGGTKLTVLG
modifications: para-acetyl-phenylalanine (pAF) at HA114 (Kabat)
notes: From E. coli; also called Fab1 HA114pAF, unconjugated
EC50 [14]: 1.35 nM
EC50 [15]: 1.33 nM

B6: Fab1-HS115-Folate (Fab, V domains shown)
VH: EVQLVESGGGLVQPGGSLRLSCAASGFTFNTYAMNWVRQAPGKGLEWVARIRSKYNNYATYYADSVKDRFTISRDDSKNILYLQMNSLKTEDTAVYYCVRHGNFGNSYVSWFAYWGQGTLVTVSS
VL: QAVVTQEPSLTVSPGGTVTLTCRSSTGAVTTSNYANWVQQKPGQAPRGLIGGTNKRAPGTPARFSGSLLGGKAALTLSGAQPEDEAEYYCALWYSNLWVFGGGTKLTVLG
modifications: pAF at HS115 (Kabat) conjugated to folate (oxime)
notes: From E. coli; Fab-folate conjugate
EC50 [14]: 1.41 nM
EC50 [15]: 1.37 nM
